Results reported in patent US20260265410A1 (UNIVERSITY OF FLORIDA RESEARCH FOUNDATION, published 2026).
Positions count from the first letter of the chain named.

B1: Fab_11 (Fab, V domains shown)
VH: AQSLEESGGRLVTPGTPLTLTCTVSGFSLSSYAMTWVRQAPGEGLEWIGTIGAGGSPYYASWAKGRFTISKTATTVNLKIISPTTEDTATYFCAREGGGSYYFDLWGPGTLVTVSS
VL: SFVLTQPASVQVNLGQTVSLTCTADTLSRSYASWYQQKPGQAPVLLIYRDTSRPSGVPDRFSGSSSGNTATLTISGAQAGDEADYYCATSDGSGSTFHFVFGGGTQLTVTG
notes: Chimeric rabbit/human Fab; also called P11; mAb_11
B2: Fab_240 (Fab, V domains shown)
VH: AQSLEESGGRLVTPGTPLTLTCTVSGFSLSAYAMSWVRQAPGKGLEWIGIISSYGNTYYATWAKGRFTISKTSTTVDLKITSPTTEDTATYFCARGDYGNGMSIWGPGTLVTVSS
VL: B1 VL with S30R, S52R, T96S, F97Y, H98Q, F99C
notes: Chimeric rabbit/human Fab; also called P240; clone 240
B3: Fab_2388 (Fab, V domains shown)
VH: QEQLKESGGGLFKPTDTLTLTCTVSGFSLSNYAISLVRQPPGNGLEWIGAIDAGGVTYYASWAKSRSTITRNTNLNTVTLKMTSLTAADTATYFCAREEWSSSSGLYFSIWGPGTLVTISS
VL: B1 VL with S30R, T96S, F97Y, H98L, F99Y
notes: Chimeric rabbit/human Fab; also called P2388; clone 2388
B4: Fab_2861 (Fab, V domains shown)
VH: AQSVEESGGRLVTPGTPLTLTCTVSGIDLSSYAMGWVRQAPGKGLEYIGIIVSDGRTYYTSWAKGRFTISKTSTTVDLKMTSPTTEDTATYFCAREGYGYYFDIWGPGTLVTISS
VL: B1 VL with S30R, S90A, T96S, F97Y, H98Q
notes: Chimeric rabbit/human Fab; also called P2861; clone 2861
B5: Fab_3208 (Fab, V domains shown)
VH: AQSVKESEGGLFKPTDTLTLTCTVSGFSLSSYAISWVRRAPGNGLEWIGAIAGYGDAYYASWAKSRSTITRNTNENTVTLKMTSLTAADTATYFCARDDYNVDTGIWGPGTLVTISS
VL: B1 VL with S30R, S90G, T96S, F97Y, H98Q, F99Y
notes: Chimeric rabbit/human Fab; also called P3208; clone 3208
B6: Fab_28 (Fab, V domains shown)
VH: AQSVEESGGRLVTPGIPLTLTCTVSGFSLNNYAMSWVRQAPGKGLEWIGMIDSGGAAYYATWARGRFTISRTSTTVDLKITSPTTEDTATYFCARELSSLYGAFDPWGPGTLVTVSS
VL: B1 VL with S30R, T96S, F97Y, H98Q, F99C
notes: Chimeric rabbit/human Fab; also called P28; clone 28
B7: Fab_2653 (Fab, V domains shown)
VH: QEQLEESGGRLVTPGTPLTLTCTASGFSLSTYAMTWVRQAPGKGLEWIGIIDRYGYTYYANWARGRFTISKTSTTVDLKITSPTTEDTATYFCARDLPGYNVGTYFNMWGPGTLVTISS
VL: B1 VL with S30R, L46F, N68S, T96S, F97Y, H98Q
notes: Chimeric rabbit/human Fab; also called P2653; clone 2653
B8: Fab_1707 (Fab, V domains shown)
VH: AQSLEEFGGGLIKPGGTLTLTCTASGFTISSYDMSWVRQAPGSGLEWIGTMAYGGDTYHASWAKSRSTITRDTNLNTVTLKMTSLTVADTATYFCARDVGSGHYYDDMYLWGPGTLVTVSS
VL: B1 VL with L14F, S30R, S90G, T96S, F97Y, H98N, F99Y
notes: Chimeric rabbit/human Fab; also called P1707
B9: Fab_1187 (Fab, V domains shown)
VH: AQSVEESGGRLVTPGTPLTLTCTVSGIDLSSYAMSWVRQAPGKGLEWIGVIDGSGSTWYANWVKGRFTISKTTTVDLKITSPTTEDTATYFCAREDYGSETIDFNIWGPGTLVTVSS
VL: B1 VL with S30R, S52R, T96S, F97Y, H98Q, F99Y
notes: Chimeric rabbit/human Fab; also called P1187; mAb_1187
B10: Fab_17 (Fab, V domains shown)
VH: AQSLEEFGGRLATPGTPLTLTCTASGFSLGTYSMSWVRQAPGKGLEWIGTIGGRGDAYYASWAKGRFTISRTSTTVDLKMTSLATEDTATYFCVRENYGYAFDIWGPGTLVTISS
VL: B1 VL with S30R, T96S, F97Y, H98Q, F99C
notes: Chimeric rabbit/human Fab; also called P17; clone 17

What follows are binders tested against T1, human Nectin-2 extracellular domain (amino acid residues 1-360 of human Nectin-2) fused to hFc (human, UniProt Q92692 32-360) (assay: ELISA, absorbance at 405 nm, one condition per Fab and antigen).
T1 construct: Bought; also called hNectin-2-ECD-hFc; NECTIN2-ECD-hFc; not shown: human Fc (hFc)
T1 sequence: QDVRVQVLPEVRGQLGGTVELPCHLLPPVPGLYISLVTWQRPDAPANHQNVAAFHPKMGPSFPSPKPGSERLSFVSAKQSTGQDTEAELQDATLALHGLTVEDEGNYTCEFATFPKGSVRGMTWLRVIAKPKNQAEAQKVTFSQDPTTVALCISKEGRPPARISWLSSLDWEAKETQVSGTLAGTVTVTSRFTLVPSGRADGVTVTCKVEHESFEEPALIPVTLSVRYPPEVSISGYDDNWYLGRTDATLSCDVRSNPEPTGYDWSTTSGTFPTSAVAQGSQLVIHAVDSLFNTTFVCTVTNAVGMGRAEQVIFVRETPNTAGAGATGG
B1: no binding.

These binders were tested against T2, human CD105-ECD: amino acid residues Met 1-Gly 586 of human CD105 (Sino bio: Cat: 10149-H02H) (human, UniProt P17813 26-586) in the same assay as above.
T2 construct: Bought; also called hCD105-ECD-hFc; hCD105-hFc
T2 sequence: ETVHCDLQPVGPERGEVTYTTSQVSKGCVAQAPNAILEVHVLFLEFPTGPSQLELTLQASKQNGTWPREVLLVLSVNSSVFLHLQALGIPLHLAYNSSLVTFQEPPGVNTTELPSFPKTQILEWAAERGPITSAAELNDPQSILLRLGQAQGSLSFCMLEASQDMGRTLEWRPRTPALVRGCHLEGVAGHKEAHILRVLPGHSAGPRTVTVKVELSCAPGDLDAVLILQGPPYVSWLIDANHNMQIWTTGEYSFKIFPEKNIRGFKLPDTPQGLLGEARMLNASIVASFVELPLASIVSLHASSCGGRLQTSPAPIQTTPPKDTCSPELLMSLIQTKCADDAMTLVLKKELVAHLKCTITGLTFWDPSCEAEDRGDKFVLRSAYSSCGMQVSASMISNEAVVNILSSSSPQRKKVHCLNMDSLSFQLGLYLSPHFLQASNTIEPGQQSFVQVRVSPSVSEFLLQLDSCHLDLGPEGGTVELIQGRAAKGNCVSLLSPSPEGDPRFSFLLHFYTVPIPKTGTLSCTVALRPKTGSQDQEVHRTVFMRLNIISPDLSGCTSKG
B1: no binding.

Each binder was assayed against T3, human PTPRG on the cell surface (U937 cells, HEL cells) (human, UniProt P23470 20-1445) (assay: flow cytometry on whole U937 cells, screen of the 28 clones (Ctrl row = 0); PTPRG is named as the antigen on U937 cells only in the later examples).
T3 construct: Endogenous PTPRG of human AML cell lines
T3 sequence (P23470 20-1445): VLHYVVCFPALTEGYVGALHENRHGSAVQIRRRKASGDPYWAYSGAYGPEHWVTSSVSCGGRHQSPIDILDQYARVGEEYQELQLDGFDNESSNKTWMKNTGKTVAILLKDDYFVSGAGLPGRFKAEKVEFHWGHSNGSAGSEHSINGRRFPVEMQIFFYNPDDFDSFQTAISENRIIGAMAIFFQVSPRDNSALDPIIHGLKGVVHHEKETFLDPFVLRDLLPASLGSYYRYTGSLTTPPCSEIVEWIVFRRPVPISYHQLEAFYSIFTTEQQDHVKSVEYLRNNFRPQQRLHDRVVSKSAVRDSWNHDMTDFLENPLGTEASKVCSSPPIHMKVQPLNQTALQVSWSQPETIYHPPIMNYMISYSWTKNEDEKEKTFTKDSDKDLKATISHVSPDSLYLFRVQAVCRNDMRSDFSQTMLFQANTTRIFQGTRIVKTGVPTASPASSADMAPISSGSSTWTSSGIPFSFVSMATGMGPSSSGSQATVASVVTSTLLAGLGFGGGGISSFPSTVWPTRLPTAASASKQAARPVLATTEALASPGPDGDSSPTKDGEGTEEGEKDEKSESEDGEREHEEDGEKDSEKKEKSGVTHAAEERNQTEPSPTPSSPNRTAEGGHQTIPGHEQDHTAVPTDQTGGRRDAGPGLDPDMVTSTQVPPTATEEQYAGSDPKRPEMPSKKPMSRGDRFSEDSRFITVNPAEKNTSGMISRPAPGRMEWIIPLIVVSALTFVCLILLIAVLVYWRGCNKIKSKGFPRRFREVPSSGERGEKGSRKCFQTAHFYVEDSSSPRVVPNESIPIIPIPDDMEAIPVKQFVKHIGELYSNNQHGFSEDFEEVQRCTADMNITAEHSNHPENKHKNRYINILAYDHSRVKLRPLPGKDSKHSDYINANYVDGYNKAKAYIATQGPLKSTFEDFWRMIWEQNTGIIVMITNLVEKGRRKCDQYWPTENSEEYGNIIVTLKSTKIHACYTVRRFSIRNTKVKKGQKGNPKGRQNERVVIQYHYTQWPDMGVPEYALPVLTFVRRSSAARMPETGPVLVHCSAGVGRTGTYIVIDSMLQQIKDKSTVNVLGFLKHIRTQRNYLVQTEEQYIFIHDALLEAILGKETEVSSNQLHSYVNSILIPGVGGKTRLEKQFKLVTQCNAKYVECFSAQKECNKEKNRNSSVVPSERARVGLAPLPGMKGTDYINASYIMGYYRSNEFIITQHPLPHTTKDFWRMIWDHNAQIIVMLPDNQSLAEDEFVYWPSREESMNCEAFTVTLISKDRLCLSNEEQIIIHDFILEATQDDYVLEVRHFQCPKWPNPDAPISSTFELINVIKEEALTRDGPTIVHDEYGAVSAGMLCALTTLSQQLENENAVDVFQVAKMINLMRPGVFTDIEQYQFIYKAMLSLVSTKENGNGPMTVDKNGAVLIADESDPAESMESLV
B2 was tested, and the “flow cytometry binding value (the table prints no name or unit)” value was 92.7.
B3 was tested, and the “flow cytometry binding value (the table prints no name or unit)” value was 90.9.
In the case of B4, the “flow cytometry binding value (the table prints no name or unit)” value is reported as 85.
With B5 the “flow cytometry binding value (the table prints no name or unit)” value was 92.7.
B6 was tested, and the “flow cytometry binding value (the table prints no name or unit)” value was 87.5.
With B7 the “flow cytometry binding value (the table prints no name or unit)” value was 91.4.
With B8 the “flow cytometry binding value (the table prints no name or unit)” value was 92.
B9 was tested, and the “flow cytometry binding value (the table prints no name or unit)” value was 29.3.
For B10, the “flow cytometry binding value (the table prints no name or unit)” value was 87.5.
For B1, the “flow cytometry binding value (the table prints no name or unit)” value was 92.9.

These binders were tested against T4, mouse PTPRG ECD (amino acid residues 20-733 of mouse PTPRG) fused to hFc (mouse, UniProt Q05909 20-733) (assay: ELISA, one condition per Fab and antigen; y axis 0 to 1.8 without name or unit).
T4 construct: Produced in-house; also called mPTPRG-ECD; Mouse PTPRG-ECD-hFc; not shown: human Fc (hFc)
T4 sequence: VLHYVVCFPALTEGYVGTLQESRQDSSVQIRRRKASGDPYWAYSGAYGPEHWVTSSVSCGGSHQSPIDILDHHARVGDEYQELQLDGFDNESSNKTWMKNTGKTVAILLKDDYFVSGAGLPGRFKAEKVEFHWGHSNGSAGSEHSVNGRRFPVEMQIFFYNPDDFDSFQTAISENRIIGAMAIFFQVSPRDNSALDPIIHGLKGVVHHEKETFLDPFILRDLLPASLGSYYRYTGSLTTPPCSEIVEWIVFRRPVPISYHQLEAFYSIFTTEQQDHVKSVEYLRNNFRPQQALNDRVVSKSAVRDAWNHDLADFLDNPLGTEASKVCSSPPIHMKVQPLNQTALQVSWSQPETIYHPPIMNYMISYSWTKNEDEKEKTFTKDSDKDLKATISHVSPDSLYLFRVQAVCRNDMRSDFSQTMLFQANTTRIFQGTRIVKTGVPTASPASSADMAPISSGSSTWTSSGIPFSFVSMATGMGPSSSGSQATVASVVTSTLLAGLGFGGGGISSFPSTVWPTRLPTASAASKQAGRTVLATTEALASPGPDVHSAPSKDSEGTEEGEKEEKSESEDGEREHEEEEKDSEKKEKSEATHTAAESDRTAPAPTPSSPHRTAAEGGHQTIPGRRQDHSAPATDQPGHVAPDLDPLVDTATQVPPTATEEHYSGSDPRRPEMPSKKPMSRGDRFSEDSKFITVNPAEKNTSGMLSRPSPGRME
B2: binds.
B4: binds.
B5: binds.
B6: binds.
B7: binds.
B8: binds.
B10: binds.

The binders below were run against T5, C-terminal domain (CTD) of human PTPRG (amino acid residues 349~736 of human PTPRG) (human, UniProt P23470 349-736) in the same assay as above.
T5 construct: also called hPTPRG-CTD; human PTPRG carboxyl domain
T5 sequence: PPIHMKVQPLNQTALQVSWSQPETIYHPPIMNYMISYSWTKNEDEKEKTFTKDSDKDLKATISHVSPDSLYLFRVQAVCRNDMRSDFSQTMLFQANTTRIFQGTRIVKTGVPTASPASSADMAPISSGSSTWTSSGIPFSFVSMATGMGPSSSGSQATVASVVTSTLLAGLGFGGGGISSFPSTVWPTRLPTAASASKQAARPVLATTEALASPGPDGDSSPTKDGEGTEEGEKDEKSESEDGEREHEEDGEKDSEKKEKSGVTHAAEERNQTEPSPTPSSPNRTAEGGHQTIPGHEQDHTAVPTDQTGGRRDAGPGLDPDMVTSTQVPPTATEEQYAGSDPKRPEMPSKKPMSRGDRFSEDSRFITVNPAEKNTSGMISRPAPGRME
B2: no binding.
B4: no binding.
B5: no binding.
B6: no binding.
B7: no binding.
B8: no binding.
B10: no binding.
B1: no binding.

What follows are binders tested against T3, human PTPRG on the cell surface (U937 …) (assay: flow cytometry on whole HEL cells, screen of the 28 clones (Ctrl row = 0); PTPRG is named as the antigen on HEL cells only in the later examples).
In the case of B2, the “flow cytometry binding value (the table prints no name or unit)” value is reported as 17.5.
In the case of B3, the “flow cytometry binding value (the table prints no name or unit)” value is reported as 15.
B4 was tested, and the “flow cytometry binding value (the table prints no name or unit)” value was 14.5.
With B5 the “flow cytometry binding value (the table prints no name or unit)” value was 17.1.
In the case of B6, the “flow cytometry binding value (the table prints no name or unit)” value is reported as 15.8.
For B7, the “flow cytometry binding value (the table prints no name or unit)” value was 13.6.
With B8 the “flow cytometry binding value (the table prints no name or unit)” value was 16.9.
B9 was tested, and the “flow cytometry binding value (the table prints no name or unit)” value was 10.7.
In the case of B10, the “flow cytometry binding value (the table prints no name or unit)” value is reported as 15.8.
In the case of B1, the “flow cytometry binding value (the table prints no name or unit)” value is reported as -2.13.
